Test results: patent publication US20120171195A1

Assays:
HLA-A*2402 (A24) (human) [1] = molecular target: HLA-A*2402 (A24) (human) (UniProt P04439); assay: Luminex single-antigen beads; MEM-E/02 1/600; serum Mi59 1/100
HLA-A*2403 (A24) (human) [2] = assay: as above
HLA-A*2501 (A25) (human) [3] = assay: as above
HLA-A*2601 (A26) (human) = assay: as above
HLA-A*3201 (A32) (human) = assay: as above
HLA-A*3301 (A33) (human) [4] = assay: as above
HLA-B*0801 (B8) (human) [5] = molecular target: HLA-B*0801 (B8) (human) (UniProt P01889); assay: as above
HLA-B*1301 (B13) (human) [6] = assay: as above
HLA-B*1401 (B64) (human) [7] = molecular target: HLA-B*1401 (B64) (human) (UniProt P01889); assay: as above
HLA-B*1511 (B75) (human) [8] = molecular target: HLA-B*1511 (B75) (human) (UniProt P01889); assay: as above
HLA-B*1513 (B77) (human) = assay: as above
HLA-B*1801 (B18) (human) = assay: as above
HLA-B*3801 (B38) (human) = assay: as above
HLA-B*3901 (B39) (human) [9] = molecular target: HLA-B*3901 (B39) (human) (UniProt P01889); assay: as above
HLA-B*4403 (B44) (human) = assay: as above
HLA-B*4501 (B45) (human) [10] = assay: as above
HLA-B*4801 (B48) (human) [11] = molecular target: HLA-B*4801 (B48) (human) (UniProt P01889); assay: as above
HLA-B*5301 (B53) (human) = assay: as above
HLA-B*6701 (B67) (human) = HLA-B*6701 (B67) (human) (UniProt P01889); assay: as above
[12] = molecular target: HLA-Cw*0401 (Cw4) (human); assay: as above
HLA-A*2402 (A24) (human) [13] = molecular target: HLA-A*2402 (A24) (human) (UniProt P04439); assay: Luminex single-antigen beads; MEM-E/02 1/600; serum Mi92 1/100
HLA-A*2403 (A24) (human) [14] = assay: as above
HLA-A*2501 (A25) (human) [15] = assay: as above
HLA-A*3002 (A30) (human) = HLA-A*3002 (A30) (human) (UniProt P04439); assay: as above
HLA-A*3301 (A33) (human) [16] = assay: as above
HLA-B*0801 (B8) (human) [17] = molecular target: HLA-B*0801 (B8) (human) (UniProt P01889); assay: as above
HLA-B*1301 (B13) (human) [18] = assay: as above
HLA-B*1401 (B64) (human) [19] = molecular target: HLA-B*1401 (B64) (human) (UniProt P01889); assay: as above
HLA-B*1511 (B75) (human) [20] = molecular target: HLA-B*1511 (B75) (human) (UniProt P01889); assay: as above
HLA-B*2708 (B27) (human) = HLA-B*2708 (B27) (human) (UniProt P01889); assay: as above
HLA-B*3901 (B39) (human) [21] = molecular target: HLA-B*3901 (B39) (human) (UniProt P01889); assay: as above
HLA-B*4501 (B45) (human) [22] = assay: as above
HLA-B*4801 (B48) (human) [23] = molecular target: HLA-B*4801 (B48) (human) (UniProt P01889); assay: as above
HLA-B*5401 (B54) (human) = HLA-B*5401 (B54) (human) (UniProt P01889); assay: as above
[24] = molecular target: HLA-Cw*0401 (Cw4) (human); assay: as above
[25] = molecular target: HLA-Cw*1203 (Cw12) (human) (UniProt P10321); assay: as above

Substance: murine monoclonal antibody MAb MEM-E/02
- MFI (HLA-A*2402 (A24) (human) [1]): < 500 MFI
- MFI (HLA-A*2403 (A24) (human) [2]): < 500 MFI
- MFI (HLA-A*2501 (A25) (human) [3]): < 500 MFI
- MFI (HLA-A*2601 (A26) (human)): < 500 MFI
- MFI (HLA-A*3201 (A32) (human)): < 500 MFI
- MFI (HLA-A*3301 (A33) (human) [4]): < 500 MFI
- MFI (HLA-B*0801 (B8) (human) [5]): < 500 MFI
- MFI (HLA-B*1301 (B13) (human) [6]): < 500 MFI
- MFI (HLA-B*1401 (B64) (human) [7]): < 500 MFI
- MFI (HLA-B*1511 (B75) (human) [8]): < 500 MFI
- MFI (HLA-B*1513 (B77) (human)): < 500 MFI
- MFI (HLA-B*1801 (B18) (human)): < 500 MFI
- MFI (HLA-B*3801 (B38) (human)): < 500 MFI
- MFI (HLA-B*3901 (B39) (human) [9]): < 500 MFI
- MFI (HLA-B*4403 (B44) (human)): < 500 MFI
- MFI (HLA-B*4501 (B45) (human) [10]): < 500 MFI
- MFI (HLA-B*4801 (B48) (human) [11]): < 500 MFI
- MFI (HLA-B*5301 (B53) (human)): < 500 MFI
- MFI (HLA-B*6701 (B67) (human)): < 500 MFI
- MFI [12]: 4590 MFI
- MFI (HLA-A*2402 (A24) (human) [13]): < 500 MFI
- MFI (HLA-A*2403 (A24) (human) [14]): < 500 MFI
- MFI (HLA-A*2501 (A25) (human) [15]): 722 MFI
- MFI (HLA-A*3002 (A30) (human)): < 500 MFI
- MFI (HLA-A*3301 (A33) (human) [16]): 522 MFI
- MFI (HLA-B*0801 (B8) (human) [17]): 990 MFI
- MFI (HLA-B*1301 (B13) (human) [18]): 978 MFI
- % inhibition (HLA-B*1401 (B64) (human) [19]): 7%
- MFI (HLA-B*1401 (B64) (human) [19]): 701 MFI
- MFI (HLA-B*1511 (B75) (human) [20]): 946 MFI
- MFI (HLA-B*2708 (B27) (human)): < 500 MFI
- % inhibition (HLA-B*3901 (B39) (human) [21]): 60%
- MFI (HLA-B*3901 (B39) (human) [21]): 737 MFI
- MFI (HLA-B*4501 (B45) (human) [22]): < 500 MFI
- MFI (HLA-B*4801 (B48) (human) [23]): < 500 MFI
- MFI (HLA-B*5401 (B54) (human)): < 500 MFI
- % inhibition [24]: 60%
- MFI [24]: 826 MFI
- % inhibition [25]: 65%
- MFI [25]: 788 MFI
